Measured values as given in article PMC6048764, “Myricetin antagonizes semen-derived enhancer of viral infection (SEVI) formation and influences its infection-enhancing activity” (Retrovirology, 2018).

B1: wild-type PAP257–273 [human] / itself (parent)
chain: RLQGGVLVNEILNHMKR

Variants of: B1
Experiment: ThT assay (amyloid fibril formation, self-assembly)
Details: with itself; peptide 3 mg/ml, agitated at 1400 rpm at 37 °C for 48 h; parent: 5.5e+03; read off a plot

Variant	response
chain 1 L2A	7800
chain 1 M15A	1400
chain 1 R17A	8300

More lines, now with the values ahead:

response	Variant
11000	chain 1 L12A
5100	chain 1 Q3A
200	chain 1 V8A
